Assays:
[1] = target: human CD3 (on Jurkat cells, CD3+, CD20- human T-cell line; on human T cells) (human) (UniProt P07766); assay: FACS, serially diluted antibody on Jurkat cells (CD3+, CD20-)
[2] = target: Fc receptors (FcR) on U937 cells; assay: cell-based or functional assay
[3] = target: cynomolgus CD3 (on cynomolgus T cells from PBMCs, "mkT cells") (cynomolgus) (UniProt Q95LI5); assay: FACS, serially diluted antibody on cynomolgus T cells (CD2+CD4+ gate of PBMCs)
[4] = target: His-tagged human FcγRI (human) (UniProt P12314); assay: SPR (Biacore T200), 25 C, His-tagged FcγRI captured on anti-penta-His chip, antibody injected, 1:1 fit
Sequence of His-tagged human FcγRI (human) (P12314 16-288 limits assumed): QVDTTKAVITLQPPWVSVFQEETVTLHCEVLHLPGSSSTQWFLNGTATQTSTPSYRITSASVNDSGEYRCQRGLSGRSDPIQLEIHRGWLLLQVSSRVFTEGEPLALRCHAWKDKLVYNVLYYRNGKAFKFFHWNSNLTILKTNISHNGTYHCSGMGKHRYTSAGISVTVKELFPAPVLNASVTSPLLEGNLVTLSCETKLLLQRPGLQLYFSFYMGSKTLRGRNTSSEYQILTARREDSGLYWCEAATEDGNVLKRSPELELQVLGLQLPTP

[5] = target: His-tagged cynomolgus FcγRIIB (cynomolgus); assay: SPR steady-state, 25 C, His-tagged FcγR captured, antibody injected
[6] = target: His-tagged human FcγRIIIA (F176) (human) (UniProt P08637); assay: as above
Sequence of His-tagged human FcγRIIIA (F176) (human) (P08637 17-208 limits assumed): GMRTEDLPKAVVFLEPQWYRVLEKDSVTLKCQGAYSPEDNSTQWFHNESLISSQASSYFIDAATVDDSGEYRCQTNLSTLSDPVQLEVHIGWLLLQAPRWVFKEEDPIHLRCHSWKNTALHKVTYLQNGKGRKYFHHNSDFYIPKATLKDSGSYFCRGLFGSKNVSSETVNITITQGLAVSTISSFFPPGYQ

[7] = target: His-tagged human FcγRIIIA (V176) (human) (UniProt P08637); assay: as above
Sequence of His-tagged human FcγRIIIA (V176) (human) (P08637 17-208 F176V limits assumed): as the sequence (P08637 17-208 limits assumed) above, with F160V counted along it

[8] = target: His-tagged cynomolgus FcγRIIIA (cynomolgus) (UniProt Q8SPW2); assay: as above
Sequence of His-tagged cynomolgus FcγRIIIA (cynomolgus) (Q8SPW2 17-208 limits assumed): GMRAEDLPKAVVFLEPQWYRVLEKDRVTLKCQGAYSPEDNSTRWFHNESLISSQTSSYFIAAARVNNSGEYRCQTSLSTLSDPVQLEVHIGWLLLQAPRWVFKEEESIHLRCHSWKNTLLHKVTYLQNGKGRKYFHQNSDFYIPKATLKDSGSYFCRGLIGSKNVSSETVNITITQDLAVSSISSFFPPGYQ

[9] = target: His-tagged human FcγRIIIB (human) (UniProt O75015); assay: as above
Sequence of His-tagged human FcγRIIIB (human) (O75015 17-200 limits assumed): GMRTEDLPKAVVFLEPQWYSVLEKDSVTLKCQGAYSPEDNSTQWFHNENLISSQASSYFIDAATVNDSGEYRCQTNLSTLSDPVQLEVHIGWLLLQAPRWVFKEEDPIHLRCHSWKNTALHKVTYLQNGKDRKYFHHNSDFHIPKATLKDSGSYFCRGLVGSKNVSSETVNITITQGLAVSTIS

[10] = target: His-tagged cynomolgus FcγRIIA (cynomolgus); assay: as above
[11] = target: His-tagged human FcγRIIA (H131) (human) (UniProt P12318); assay: as above
Sequence of His-tagged human FcγRIIA (H131) (human) (P12318 36-218 limits assumed): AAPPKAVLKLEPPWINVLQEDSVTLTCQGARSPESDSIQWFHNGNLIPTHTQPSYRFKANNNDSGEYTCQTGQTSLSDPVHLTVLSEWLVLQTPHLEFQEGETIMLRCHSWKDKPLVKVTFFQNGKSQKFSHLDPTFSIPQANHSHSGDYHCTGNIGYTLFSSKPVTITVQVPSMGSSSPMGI

[12] = target: His-tagged human FcγRIIB (human) (UniProt P31994); assay: as above
Sequence of His-tagged human FcγRIIB (human) (P31994 46-217 limits assumed): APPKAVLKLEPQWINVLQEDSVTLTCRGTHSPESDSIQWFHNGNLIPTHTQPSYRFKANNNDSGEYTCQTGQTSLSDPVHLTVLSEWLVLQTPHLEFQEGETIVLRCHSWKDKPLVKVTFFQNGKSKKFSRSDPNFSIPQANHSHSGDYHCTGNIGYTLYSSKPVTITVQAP

[13] = target: His-tagged human FcγRIIA (R131) (human) (UniProt P12318); assay: as above
Sequence of His-tagged human FcγRIIA (R131) (human) (P12318 36-218 H167R limits assumed): as the sequence (P12318 36-218 limits assumed) above, with H132R counted along it

Sequence of cynomolgus CD3 (on cynomolgus T cells from PBMCs, "mkT cells") (cynomolgus) (Q95LI5 22-198, chain 1 of 3): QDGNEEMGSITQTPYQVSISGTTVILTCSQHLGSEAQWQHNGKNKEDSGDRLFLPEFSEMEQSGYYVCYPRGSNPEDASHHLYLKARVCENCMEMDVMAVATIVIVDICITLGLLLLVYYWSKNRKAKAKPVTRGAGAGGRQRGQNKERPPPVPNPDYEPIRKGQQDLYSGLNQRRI
Sequence of cynomolgus CD3 (on cynomolgus T cells from PBMCs, "mkT cells") (cynomolgus) (Q95LI8 22-171, chain 2 of 3, further chain): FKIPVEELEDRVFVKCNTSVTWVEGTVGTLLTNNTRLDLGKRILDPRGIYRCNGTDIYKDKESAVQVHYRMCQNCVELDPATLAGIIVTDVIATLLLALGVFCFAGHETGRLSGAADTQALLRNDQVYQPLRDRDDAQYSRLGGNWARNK
Sequence of cynomolgus CD3 (on cynomolgus T cells from PBMCs, "mkT cells") (cynomolgus) (Q95LI7 23-181, chain 3 of 3, further chain): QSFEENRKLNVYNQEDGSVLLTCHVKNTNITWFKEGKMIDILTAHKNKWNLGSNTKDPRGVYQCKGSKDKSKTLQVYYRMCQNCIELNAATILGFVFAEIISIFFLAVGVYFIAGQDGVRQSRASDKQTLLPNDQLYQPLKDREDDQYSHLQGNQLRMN

EC50 [1]	EC50 [3]	Kd [4]	T1/2 [4]	Kd [5]	Kd [6]	Kd [7]	Kd [8]	Kd [9]	Kd [10]	Kd [11]	koff [4]	kon [4]	Kd [12]	Kd [13]	Substance	U937 Cytotoxicity Human T-cells [M] (EC50, calcein release) [2]
0.000196 µM															Control Antibody 1: Monoclonal antibody "OKT-3" against human T-cell surface antigens	3.04e-12 M
	0.0703 nM														Control Antibody 2: Antibody "SP34" reactive against the epsilon chain of the T3 complex on human T lymphocyte cells	
		0.0043 µM	15 min	4.2 µM	1.3 µM	1.5 µM	0.6 µM	2.3 µM	4.2 µM	1.1 µM					wt-IgG1 Isotype Control (from UniProt P01857 1-328) (antibody)	
		0.0139 µM	5 min	9.6 µM	26 µM	10 µM	5.8 µM		19.3 µM	12 µM	0.00236 s⁻¹	171000 M⁻¹ s⁻¹	9.8 µM	10 µM	wt-IgG4 CPPC Isotype Control (antibody)	

Source: patent publication US20180194841A1
